We go through 16 sequences from the nanobody polyreactivity screen of Harvey et al. (2022).

A short description of the data set: yeast display, Sf9 membrane polyspecificity reagent, FACS + sequencing; frameworks hold sequencing errors. Put shortly: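 Galactose induction of a Saccharomyces cerevisiae BJ5465 synthetic nanobody display library ran 36–48 hours. The cells were then stained for 1 hour at 4 °C with 10% biotinylated, detergent-solubilized Sf9 membrane reagent, pulled down on streptavidin microbeads and FACS-sorted into low and high (top ~1%) gates on expression and reagent-binding fluorescence. Labels for polyreactivity follow the gate of origin.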
Regarding “QGQLVESGGGLVQAGGRLRLSCAASGSTLWRYAMGWYRQAPRKERELVAGISRGGGSTYYADSVKGRFTISRDNAKNTVYLQMYSLKPEDTGVYYCATPVNQVRGAFDYWGQGTQVSVSS”, the “polyreactivity (PSR sort gate)” value is “low polyreactivity”.
Next, “QGQLVESGGGLVQAGGSIRLSCAASGYIFRRYAMGWYRQAPGKEREFVATISRSGGSTYYADSVKGRFTISRDNAKNTVYLQMNSLKPEDTAVYYCNAGYGYGYPKYDYWGQCTQVTVSS”: “high polyreactivity”; “QGQLVESGGGLVQAGGSLLLSCAASGRTFYNYYTMGLYRQAPGKERELVAAISRSGSTNYADSVKGRFTISRDTAKNTVYLQMNSLKPEDTAVYYCARSYRSDGSRFGYWGQGTQVTVSS”: “low polyreactivity”.
Next, “QGQLVESGGGLVQAGGSLRFSCAASGSTFVWYAMGWYRQAPGKERELVAGINRSGGSRYYADSVKGRFTILRDNAKNTVYLQMNSLKPEDTAVYYCAARGKRFRNSRIAYDYWGKGTQVTVSS”: “high polyreactivity”; “QGQLVESGGGLVQAGGSLRLSCAAAGFTFGSYAMGWYRHAPGKERELFARISSDGSTNYADSVKGRFTISSDNAKNTVYLQMNSLKPEDTAVYYCNADRQYTCSLVFFSSDYDYWGLGTQVTVSS”: “low polyreactivity”; “QGQLVESGGGLVQAGGSLRLSCAASGFIFYKNAMGWYRQAPGKARELVAAITWSGGSTYYADSVKGRFTISRDNAKNTVYLQMNSLKPEDTAVYYCAAGVTWISWVWYDYWGQGTQVTVSS”: “low polyreactivity”.
Next, “QGQLVESGGGLVQAGGSLRLSCAASGFIYGFYGMGWYRQAPGKEREFVAAIDFIDGDTYYADSVKGRFTISRDNAKNTVYLQMNSLKPEDTAVYYCAAVGSFWQFDYWGQGTQVTVSS”: “low polyreactivity”; “QGQLVESGGGLVQAGGSLRLSCAASGFTFAGYARGWYRQAPGKERELVAAINRGGSTYYADSVKGRFTISRDNAKNTVYLQMNSLTPEDTAVYYCAARQEPGWYPDVWWEYDYWGQGTQVTVSS”: “low polyreactivity”; “QGQLVESGGGLVQAGGSLRLSCAASGFTFYKNTMGWYRQAPGKERELVAAISSSGSSTYYADSVKGRFTISRDNAKNTVYLQMISLKPEDTAVYYCAACSFAYHDDYWGQGTQVTVSS”: “high polyreactivity”.
Turning to “QGQLVESGGGLVQAGGSLRLSCAASGLTFYYYARGWYRQAPGKERELVATISSRGGSTNYADSVKGRFTISRDNAKNTVYLQMNSLKPEDTAVYYCATDNSGYPRLNYWGQGTHVTVSS”, the “polyreactivity (PSR sort gate)” value is “high polyreactivity”.
As for “QGQLVESGGGLVQAGGSLRLSCAASGRIFVPYGMGWYRQAPGKERELVAAITTGGSTNYADSVKGRFTISRDNAKNTVYLQMNSLKPEDTAVYYCAVDWYPQLIYSFNSELEYWGQGTQVTVSS”, the entry is “low polyreactivity”; as for “QGQLVESGGGLVQAGGSLRLSCAASGRISYYYAMGWYRQAPGKERELVAAISRRSTSTYYADSVKGRFTISRDYAKNTVYLQMNSLKPEDTAVYYCAARYIRAFSWRMDYWGQGTQVTVSS”, “high polyreactivity”; as for “QGQLVESGGGLVQAGGSLRLSCAASGRIVRPNAMGWYRQAPGKETEFVAAISSGGSTYYADSVKGRFTISRDNAKNSVYLQMNSLKPEDTAVYYCAADLSNRPYYRQGYDYWGQGTQVTVSS”, “high polyreactivity”.
As for “QGQLVESGGGLVQAGGSLRLSCAASGRIVSVYAMGWYRQAPGKEREFVASISWRGGRTYYADSVKGRFTISRDNAKNTVYLQMNSLKPEDTALYYCATGYDYYVRRYYYWGQGTQVSVSS”, the entry is “high polyreactivity”; as for “QGQLVESGGGLVQAGGSLRLSCAASGRTFKYYAMGWYRQAPGQERELVAAISYNGGSTFYADSVKGRFTISRDNAKNTVYLQMNSLKPEDTAVYYCAAVYRYRNRRDYDYWGQGTQVTVSS”, “high polyreactivity”.
Next, “QGQLVESGGGLVQAGGSLRLSCAASGRTFTYYVMGWSRQAPGKERELVAAISWTGGSTNYADSVMGRFTISRDNAKNTVYLQMNSRKPEDTAVYYCNAGGFFGYGRPGYYWGQGTQVTVSS”: “low polyreactivity”.
